Results published in patent publication US20100272736A1, “COMBINATION ANTIBIOTIC AND ANTIBODY THERAPY FOR THE TREATMENT OF PSEUDOMONAS AERUGINOSA INFECTION” (priority 2009, published 2010).

Columns and labels:
[1] = target: PcrV on Pseudomonas aeruginosa strain PA103 (type III secretion system) (Pseudomonas aeruginosa strain PA103); experiment: cell-based or functional assay
[2] = target: PcrV antigen of Pseudomonas aeruginosa (recombinant PcrV) (Pseudomonas aeruginosa); experiment: biolayer interferometry, ForteBio Octet

Mab166 Fab
IC50 (nM), TTSS-dependent cytotoxicity assay (PA103 killing of P3-X63-Ag8 myeloma cells, propidium iodide flow cytometry) [1]: 53 nM
Kd [2]: 1.4 nM
